The source of these data is paper PMC10527986.

Assay [1] has as its target hMPV pre-fusion F protein (A2 strain; A185P, A113C/A339C, RRRR furin site) (human metapneumovirus, A2 strain) (UniProt Q6WB98). Nature of the assay: SEC.
Assay [2] has the same target. The assay can be described thus: cryo-EM structure.

By stoichiometry N is commonly meant a count of units in the complex or per binding partner. With “hMPV pre-fusion F protein (A2 strain; A185P, A113C/A339C, RRRR furin site) (from UniProt Q6WB98 19-539) (natural protein)”, the stoichiometry N in assay [1] is 3; in assay [2] it was 2.
